# Test results: patent publication US12162924B2, “Method for the design of fibrillar collagen-mimetic peptide self-assemblies” (WISCONSIN ALUMNI RESEARCH FOUNDATION, priority 2016, dated 2024)
# Substitutions are numbered along the chain they refer to. Where “and” joins values, the source holds several entries; their conditions need not be identical. Equal values may be shown once. Non-standard residues stand in square brackets, D forms with d. No end group written: not given here. Hyp = O=C(O)[C@@H]1C[C@@H](O)CN1; Orn = NCCC[C@H](N)C(=O)O
# B1: POGPOGPO…cyOGPOGDOGDOGDOGDOGPOG / POGPOGPCysGPKGPKGPKGPKGPOGPOGDOGDOGDOGDOGPOG (peptide)
# chain 1: PXGPXGPXGPKGPKGPKGPKGXXGPXGDXGDXGDXGDXGPXG
# chain 2: B1 chain 1 with X8C, X22P
# modifications: not fully specified; homocysteine-cysteine crosslinked heterodimer; MOD_RES (2)..(2) 4Hyp; MOD_RES (5)..(5) 4Hyp; MOD_RES (8)..(8) 4Hyp; MOD_RES (22)..(22) Homocysteine; MOD_RES (23)..(23) 4Hyp; MOD_RES (26)..(26) 4Hyp; MOD_RES (29)..(29) 4Hyp; MOD_RES (32)..(32) 4Hyp; MOD_RES (35)..(35) 4Hyp; MOD_RES (38)..(38) 4Hyp; MOD_RES (41)..(41) 4Hyp
# Columns and labels:
# Format in all cases: physicochemical
# [1] = CD thermal denaturation (melting temperature of triple-helical assemblies); settings: for Tm (° C.): Table 2, constructs that self-assemble
# Procedure: All CD data were acquired with a 202SF or 420 CD spectrophotometer from Aviv Biomedical (Lakewood, N.J.) at the UW BIF. Samples were prepared at a concentration of 0.6 mg/mL (˜160 μM) in 10 mM sodium phosphate buffer, pH 7.0, both with and without NaCl (180 mM). CD spectra were recorded at 4° C. with a 1-nm band-pass in quartz cuvettes with a 0.1-cm pathlength, using an averaging time of 4 s. For thermal denaturation experiments the CD signal was monitored at 226 nm while the sample was heated at a rate of 12° C./h in 2- or 3-° C. steps. The melting transition is indicated by a minimum on the temperature derivative of the melting curve (∂[θ]/∂T), and values (±1° C.) of melting temperature (Tm) were determined assuming constant curvature in the immediate vicinity of the transition minimum.
# [2] = Evidence for symmetric self-assembly (AUC/CD/DLS/TEM/AFM/Rheology); settings: Table 3
# Excerpt: These peptides follow the following criteria for symmetric triple-helical self-assembly: • o. Peptides should embody the uninterrupted Xaa-Yaa-Gly tripeptide repeats of collagens • Peptides should be constructed to allow the formation of a polyproline-II helix. For this, their sequence should have a Gly at every third position. In addition, Pro residues should be favored at Xaa positions and Pro or Hyp residues at Yaa positions. Resulting peptides are collagen-mimetic peptides (CMPs). • i. Repulsive interstrand interactions should be installed to prevent the formation of the blunt-ended homotrimeric state. • CMPs are prone to forming blunt-ended triple helices, in general. This state should be destabilized to enable CMPs to associate with sticky-ends. • ii. The number of tripeptide repeats, nT, that constitute the CMP cannot be evenly divisible by three. • Satisfaction of this criterion is essential to obtain identical strand-offsets in the assembled state. […] This offset is nT residues for a peptide with nT tripeptide repeats. […] Thus, it is necessary to introduce attractive interstrand interactions to CMP designs that stabilize triple-helix formation only when they associate with nT-residue offsets.
# [3] = Negative-stained (dry) TEM imaging of peptide assemblies; settings: for Feature dimensions (nm), nanofiber diameter by TEM: dried, negative-stained, mean±SD
# Procedure: (§1) All imaging was performed with a Tecnai TF-30 TEM instrument (300 kV) from FEI (Hillsboro, Oreg.) at the UW Materials Science Center (MSC; msc.engr.wisc.edu). Samples were prepared on Quantifoil R1.2/1.3 holey-carbon mesh on copper grids. Sample preparation for dry TEM was carried out at 4° C. Samples were negative-stained using freshly prepared 2.0% w/w PTA solution adjusted to pH 6 with aqueous NaOH and filtered. The peptide solution was allowed to adhere to the carbon-mesh side of the grid for 1 min, at which point excess solution was blotted with filter paper, and the grid was allowed to dry for 5 min. Negative stain was applied for 10 min by inverting the grid on a drop of PTA solution. Excess stain was removed with filter paper, and the grid was allowed to dry overnight prior to imaging. For vitreous ice cryo-TEM imaging, a solution of OKD (0.3 mg/mL) was applied to a TEM grid, glow discharged for 0.5 min at 25 mA beforehand with a Pelco easiGlow unit from Ted Pella (Redding, Calif.). The grid was allowed to equilibrate at 5° C. at 95% humidity. A drop of peptide solution was added, and the grid was then blotted and immersed in liquid ethane on a Vitrobot from FEI. The grid was transferred from liquid ethane to liquid nitrogen manually, and was stored in liquid nitrogen until imaging. Acquisition was performed at −180° C. with low dose and long exposures.
# [4] = Tapping-mode atomic force microscopy on mica; settings: annealed at 0.03 mg/mL, freshly cleaved mica
# Procedure: Peptide samples were annealed at 0.03 mg/mL in 10 mM sodium phosphate buffer, pH 7.0, and applied onto freshly cleaved mica at 4° C. After 10 min, the solution of peptide was washed with cold water for 30 s, and excess water was removed with a filter paper. Samples were dried at 4° C. overnight prior to imaging. AFM images were collected in tapping mode with an Agilent 5500 SPM instrument using NCHV-A probes from Bruker (Billerica, Mass.). Data were analyzed with Gwyddion ver. 2.39 software (gwyddion.net).
# Although the softness of the material led to artifacts and necessitated frequent use of fresh probes, the images clearly and consistently present the self-assembled OKD nanofibers.
# [5] = Vitreous ice cryo-TEM imaging; settings: 0.3 mg/mL, flash frozen in liquid ethane
# Procedure: as §1
# [6] = Rheology of peptide hydrogels / hydrogel formation
# Procedure: This solution is placed in an airtight container, heated to 65° C. in a large water bath and annealed down to room temperature, overnight. The resulting hydrogel is subjected to rheological analysis (FIG. 15a).
# Rheology on peptide hydrogels was performed on a TA ARES rheometer at the Soft Materials Laboratory at the University of Wisconsin—Madison, using 8-mm stainless-steel parallel-plate geometry with a 1 mm gap size. Strain sweeps (0.01-200%) maintained a fixed frequency of 2 rad/s, while a fixed strain of 1% was applied for frequency sweeps (0.1-100 rad/s).
molecule,measurement,setting,value
POGPOGPCysGPKGPKGPKGPKGPOGPOGDOGDOGDOGDOGPOG (PXGPXGPCGPKGPKGPKGPKGPXGPXGDXGDXGDXGDXGPXG; hydroxyproline residues; MOD_RES (2)..(2) 4Hyp; MOD_RES (5)..(5) 4Hyp; MOD_RES (23)..(23) 4Hyp; MOD_RES (26)..(26) 4Hyp; MOD_RES (29)..(29) 4Hyp; MOD_RES (32)..(32) 4Hyp; MOD_RES (35)..(35) 4Hyp; MOD_RES (38)..(38) 4Hyp; MOD_RES (41)..(41) 4Hyp) [OKD2-C8],Tm (° C.),[1],45 °C
POGPOGPOGPKGPKGPKGPOGPOGDOGDOGDO (P[Hyp]GP[Hyp]GP[Hyp]GPKGPKGPKGP[Hyp]GP[Hyp]GD[Hyp]GD[Hyp]GD[Hyp]) [Peptide 3sb-OKD],Tm (° C.),[1],20 °C
POGPOGPOGPOrGPOrGPOrGPOGPOGDOGDOGDO (P[Hyp]GP[Hyp]GP[Hyp]GP[Orn]GP[Orn]GP[Orn]GP[Hyp]GP[Hyp]GD[Hyp]GD[Hyp]GD[Hyp]) [Peptide 3sb-OOrD],Evidence (constructs that do not reliably self-assemble),[2],no structure
PKGPKGPKGPOGPOGDOGDOGDOGPOGPOGPOG (PKGPKGPKGP[Hyp]GP[Hyp]GD[Hyp]GD[Hyp]GD[Hyp]GP[Hyp]GP[Hyp]GP[Hyp]G) [Peptide 3sbG-KDO],Tm (° C.),[1],26 °C
POGPOGPOGPOGPKGPKGPKGPKGPOGPOGDOGDOGDOGDO (P[Hyp]GP[Hyp]GP[Hyp]GP[Hyp]GPKGPKGPKGPKGP[Hyp]GP[Hyp]GD[Hyp]GD[Hyp]GD[Hyp]GD[Hyp]) [Peptide 4sb-OKD],Tm (° C.),[1],36 °C
"POGPOGPOGPKGPKGPKGPKGHcyOGPOGDOGDOGDOGDOGPOG (PXGPXGPXGPKGPKGPKGPKGXXGPXGDXGDXGDXGDXGPXG; homocysteine, hydroxyproline residues; MOD_RES (2)..(2) 4Hyp; MOD_RES (5)..(5) 4Hyp; MOD_RES (8)..(8) 4Hyp; MOD_RES (22)..(22) Homocysteine; MOD_RES (23)..(23) 4Hyp; MOD_RES (26)..(26) 4Hyp; MOD_RES (29)..(29) 4Hyp; MOD_RES (32)..(32) 4Hyp; MOD_RES (35)..(35) 4Hyp; MOD_RES (38)..(38) 4Hyp; MOD_RES (41)..(41) 4Hyp) [OKD2-h22]",Tm (° C.),[1],50 °C
POGPOGPOGPOGPKGPKGPKGPKGPOGPOGDOGDOGDOGDOG (PXGPXGPXGPXGPKGPKGPKGPKGPXGPXGDXGDXGDXGDXG; hydroxyproline residues; MOD_RES (2)..(2) 4Hyp; MOD_RES (5)..(5) 4Hyp; MOD_RES (8)..(8) 4Hyp; MOD_RES (11)..(11) 4Hyp; MOD_RES (26)..(26) 4Hyp; MOD_RES (29)..(29) 4Hyp; MOD_RES (32)..(32) 4Hyp; MOD_RES (35)..(35) 4Hyp; MOD_RES (38)..(38) 4Hyp; MOD_RES (41)..(41) 4Hyp) [OKD],length of triple-helical stretches,[3]; TEM,≤ 0.3 μm
same,"Feature dimensions (nm), nanofiber diameter by TEM",[3],2.3±0.4 nm
same,nanofiber length (AFM),[4],up to 0.5 μm
same,nanofiber thickness/diameter (AFM),[4],1.2±0.2 nm and 1.2 nm
same,Tm (° C.) I = 20 mM,"[1]; CD at 226 nm, 0.6 mg/mL, 10 mM sodium phosphate pH 7.0, low ionic strength I = 20 mM",49 °C
same,Tm (° C.) I = 200 mM,"[1]; CD at 226 nm, 0.6 mg/mL, 10 mM sodium phosphate pH 7.0 with 180 mM NaCl, I = 200 mM",39 °C
same,Tm (° C.),[1],49 °C
same,diameter of solvated nanofibers (cryo-TEM),[5],3.8±0.5 nm
same,hydrogel formation,[6]; 4sbG series peptides,form hydrogels
same,G′ (storage modulus),[6]; hydrogel at 1% concentration,0.5 kPa
same,G″ (loss modulus),[6]; hydrogel at 1% concentration,0.05 kPa
PKGPKGPKGPOGPOGDOGDOGDOGPOGPOGPO (PKGPKGPKGP[Hyp]GP[Hyp]GD[Hyp]GD[Hyp]GD[Hyp]GP[Hyp]GP[Hyp]GP[Hyp]) [Peptide 3sb-KDO],Tm (° C.),[1],13 °C
POGPOGPOGPKGPKGPKGPOGPOGDOGDOGDOG (P[Hyp]GP[Hyp]GP[Hyp]GPKGPKGPKGP[Hyp]GP[Hyp]GD[Hyp]GD[Hyp]GD[Hyp]G) [Peptide 3sbG-OKD],Tm (° C.),[1],33 °C
B1,"Feature dimensions (nm), nanofiber diameter by TEM",[3],2.4±0.4 nm
same,Tm (° C.),[1],60 °C
